Laboratory results: patent publication US10100120B2, “Antibody which specifically binds to human CRTH2” (KYOWA HAKKO KIRIN CO., LTD, priority 2015, dated 2018)
Residue numbers refer to the chain shown, from its start.

Experiments:
[1] = target: T1, mutated human CRTH2 with amino acid substitution (Homo sapiens, UniProt Q9Y5Y4, D171A/I173A/T172A); assay: Epitope analysis using CHO-S cells which express mutated human CRTH2 with amino acid substitution; type: binding; details: mutant D171A, T172A, and I173A; antibody 10 μg/mL; relative to wild-type = 100%
T1 construct: inserting genes encoding various mutants with amino acid substitution obtained by deleting termination codons; expressed in transfected cells; host or cells: CHO-S cells (Lifetechnologies), transient (phmAG1-MNLinker vector)
T1 sequence (Q9Y5Y4 1-395 D171A/T172A/I173A): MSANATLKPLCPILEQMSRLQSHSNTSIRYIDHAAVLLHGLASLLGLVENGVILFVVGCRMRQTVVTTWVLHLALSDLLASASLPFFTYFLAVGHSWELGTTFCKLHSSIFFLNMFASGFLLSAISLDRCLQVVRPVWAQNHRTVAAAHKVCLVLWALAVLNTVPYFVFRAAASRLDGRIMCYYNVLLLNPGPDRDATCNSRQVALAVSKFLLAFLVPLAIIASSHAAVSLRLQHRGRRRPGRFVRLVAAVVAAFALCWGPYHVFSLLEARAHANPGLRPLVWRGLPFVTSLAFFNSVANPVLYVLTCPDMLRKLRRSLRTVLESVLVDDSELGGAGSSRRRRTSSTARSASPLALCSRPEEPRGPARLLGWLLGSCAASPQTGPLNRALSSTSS
Summary of the method: (§1)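 CHO-S cells transiently expressing alanine-substituted human CRTH2 extracellular mutants, C-terminally Azami-Green tagged, 24 h post-transfection. Antibodies at 10 μg/mL, 4 °C 1 h, then Alexa647 anti-IgG secondary 4 °C 1 h; flow cytometry on Azami-Green-positive cells. Reactivity = Alexa647 intensity divided by Azami-Green intensity.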

[2] = target: T2, mutated human CRTH2 with amino acid substitution (Homo sapiens, UniProt Q9Y5Y4, D196A/T198A); assay: as above; type: binding; details: mutant D196A and T198A; antibody 10 μg/mL; relative to wild-type = 100%
T2 construct: inserting genes encoding various mutants with amino acid substitution obtained by deleting termination codons; expressed in transfected cells; host or cells: CHO-S cells (Lifetechnologies), transient (phmAG1-MNLinker vector)
T2 sequence (Q9Y5Y4 1-395 D196A/T198A): T1 sequence (Q9Y5Y4 1-395 D171A/T172A/I173A) with A171D, A172T, A173I, D196A, T198A
Summary of the method: as §1

B1: LV0HV1: humanized Lym2 antibody, VL LV0 (SEQ ID NO: 33), VH HV1 (SEQ ID NO: 51) (antibody, V domains shown)
VH: EVQLVESGGGVVQPGRSLRLSCAASGFTFSNYYMAWVRQAPGKGLEWVATISYDGSSTYYRDSVKGRFTISRDNAKNSLYLQMNSLRAEDTATYYCARHRGYYYSGAGYFDYWGQGTMVTVSS
VL: DIVMTQTPLSLPVTPGESASISCRSSQSLEYSDGYTYLEWYLQKPGQSPQVLIYGVSNRFSGVPDRFSGSGSGTDFTLKISRVEAEDVGVYYCFQATHDPLTFGQGTKLEIK
reactivity against cells expressing mutated human CRTH2 [1]: greatly decreased | reactivity against cells expressing mutated human CRTH2 [2]: lost
